In patent publication US20240218342A1, “SITE-SPECIFIC GLYCAN REMODELING OF LYSOSOMAL ENZYMES AND APPLICATIONS THEREOF” (priority 2021, published 2024):

Biological target: Recombinant human IGF-II R (CI-MPR) (Homo sapiens, UniProt P11717)
Assay: SPR binding to immobilized CI-MPR
Conditions: 25° C., three independent experiments
Procedure: Surface Plasmon Resonance (SPR) Measurements. SPR measurements were performed on a Biacore T200 instrument (GE Healthcare). Recombinant human IGF-II R (CI-MPR) was purchased from R&D Systems. Approximately 7000 resonance units (RU) of CI-MPR was immobilized on a CM5 sensor chip in a sodium acetate buffer (25 μg/mL, pH 4.0) at 25° C., using the amine coupling kit provided by the manufacturer. Mannose 6-phosphates containing glycopeptides or glycoproteins were determined at 25° C. under a flow rate of 10 μL/min. HBS-P+ buffer (10 mM HEPES, 150 mM NaCl, 0.05% surfactant P20, pH 7.4) was used as sample buffer and running buffer. Association was measured for 3 min and dissociation for 10 min at the same flow rate (10 μL/min). […] Synthetic glycopeptide and glycoprotein analytes flowed over an immobilized chip with 2-fold serial dilution of the highest concentration of 4 μM (for glycopeptides) or 1 μM (for RNase B) or 250 nM (for rhGAA). Kinetic analyses were performed by global fitting of the binding data to a 1:1 Langmuir binding model using BIAcore T200 evaluation software.

Recombinant human IGF-II R (CI-MPR), sequence (P11717 41-2491): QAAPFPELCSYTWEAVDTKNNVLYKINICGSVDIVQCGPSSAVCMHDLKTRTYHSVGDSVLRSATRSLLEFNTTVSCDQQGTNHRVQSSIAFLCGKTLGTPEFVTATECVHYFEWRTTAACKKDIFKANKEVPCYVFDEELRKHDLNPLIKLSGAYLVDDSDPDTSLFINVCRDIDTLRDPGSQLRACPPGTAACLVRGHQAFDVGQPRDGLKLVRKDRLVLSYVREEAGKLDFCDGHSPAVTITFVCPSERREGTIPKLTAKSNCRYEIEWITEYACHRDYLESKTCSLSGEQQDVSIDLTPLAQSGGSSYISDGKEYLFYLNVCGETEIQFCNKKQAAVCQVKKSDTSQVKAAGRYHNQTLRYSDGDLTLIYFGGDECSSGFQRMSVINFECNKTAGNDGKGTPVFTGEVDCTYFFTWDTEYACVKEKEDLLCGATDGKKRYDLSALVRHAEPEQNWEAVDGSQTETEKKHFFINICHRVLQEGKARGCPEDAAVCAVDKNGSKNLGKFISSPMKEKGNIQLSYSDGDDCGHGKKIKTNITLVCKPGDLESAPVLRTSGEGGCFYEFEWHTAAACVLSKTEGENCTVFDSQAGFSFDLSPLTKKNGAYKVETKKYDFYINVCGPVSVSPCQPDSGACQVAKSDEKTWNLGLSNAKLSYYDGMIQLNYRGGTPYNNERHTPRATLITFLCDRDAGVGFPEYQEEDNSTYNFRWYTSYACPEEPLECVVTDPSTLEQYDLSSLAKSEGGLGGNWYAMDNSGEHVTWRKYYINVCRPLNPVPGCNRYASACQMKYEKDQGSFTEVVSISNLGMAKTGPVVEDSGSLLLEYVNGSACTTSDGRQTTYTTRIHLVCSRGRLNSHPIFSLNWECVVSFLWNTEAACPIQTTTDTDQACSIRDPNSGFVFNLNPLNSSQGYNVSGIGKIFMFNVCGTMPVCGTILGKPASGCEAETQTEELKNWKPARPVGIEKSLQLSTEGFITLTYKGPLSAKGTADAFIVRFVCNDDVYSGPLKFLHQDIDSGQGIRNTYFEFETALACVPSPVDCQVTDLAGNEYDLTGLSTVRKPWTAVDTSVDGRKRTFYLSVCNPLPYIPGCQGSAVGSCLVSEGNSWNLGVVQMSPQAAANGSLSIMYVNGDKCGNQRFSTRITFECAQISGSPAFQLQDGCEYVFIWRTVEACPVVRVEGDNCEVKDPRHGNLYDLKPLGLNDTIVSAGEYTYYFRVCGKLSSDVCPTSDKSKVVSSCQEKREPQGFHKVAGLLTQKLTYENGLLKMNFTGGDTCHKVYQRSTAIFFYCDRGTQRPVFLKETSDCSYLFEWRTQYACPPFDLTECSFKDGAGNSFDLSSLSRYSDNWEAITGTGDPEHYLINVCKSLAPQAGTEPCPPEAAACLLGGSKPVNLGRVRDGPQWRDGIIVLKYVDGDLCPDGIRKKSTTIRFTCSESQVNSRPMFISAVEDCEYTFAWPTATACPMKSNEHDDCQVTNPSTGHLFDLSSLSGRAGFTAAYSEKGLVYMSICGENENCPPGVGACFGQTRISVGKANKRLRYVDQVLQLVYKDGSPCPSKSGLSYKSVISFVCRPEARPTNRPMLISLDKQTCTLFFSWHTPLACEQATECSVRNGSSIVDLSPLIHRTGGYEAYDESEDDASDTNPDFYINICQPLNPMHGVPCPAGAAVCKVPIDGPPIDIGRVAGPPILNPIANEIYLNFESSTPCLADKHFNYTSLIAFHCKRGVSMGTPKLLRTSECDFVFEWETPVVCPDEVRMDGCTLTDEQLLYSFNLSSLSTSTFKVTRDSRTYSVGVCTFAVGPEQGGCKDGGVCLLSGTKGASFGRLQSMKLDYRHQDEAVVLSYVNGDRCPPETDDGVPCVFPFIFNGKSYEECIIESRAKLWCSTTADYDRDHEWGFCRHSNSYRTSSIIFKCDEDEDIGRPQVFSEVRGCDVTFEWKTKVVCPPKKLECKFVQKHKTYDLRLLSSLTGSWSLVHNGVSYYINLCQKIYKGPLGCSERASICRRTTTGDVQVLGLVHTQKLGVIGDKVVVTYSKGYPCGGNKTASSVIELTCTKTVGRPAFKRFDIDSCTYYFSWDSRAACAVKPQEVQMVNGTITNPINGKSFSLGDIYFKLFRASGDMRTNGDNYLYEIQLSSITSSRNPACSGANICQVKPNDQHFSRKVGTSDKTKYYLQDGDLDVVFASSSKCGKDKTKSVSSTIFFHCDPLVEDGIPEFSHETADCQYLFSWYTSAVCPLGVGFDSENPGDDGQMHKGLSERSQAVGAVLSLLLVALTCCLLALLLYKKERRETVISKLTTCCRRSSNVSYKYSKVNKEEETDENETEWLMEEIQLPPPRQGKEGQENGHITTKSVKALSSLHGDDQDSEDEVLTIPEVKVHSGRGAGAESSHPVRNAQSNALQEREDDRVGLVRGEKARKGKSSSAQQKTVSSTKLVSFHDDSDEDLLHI

B1: Glycoprotein 68: phosphorylated glycoprotein from GlcNAc-RNase B and oxazoline 8 under wild-type Endo-A catalysis (protein)
chain: KETAAAKFERQHMDSSTSAASSSNYCNQMMKSRNLTKDRCKPVNTFVHESLADVQAVCSQKNVACKNGQTNCYQSYSTMSITDCRETGSSKYPNCAYKTTQANKHIIVACEGNPYVPVHFDASV
modifications: Asn-34 carries GlcNAc extended with M6P tetrasaccharide oxazoline 8 (Man6P-α1,2-Man-α1,3-Man-β1,4-GlcNAc)
B1 showed a Kd of 15.8 nM.
